Source: doi:10.1101/2021.05.04.442675

Molecular target: FLAG-tagged MIWI piRISC made in BmN4 cells (mouse) (UniProt Q9JMB7)
Sequence (Q9JMB7 whole entry): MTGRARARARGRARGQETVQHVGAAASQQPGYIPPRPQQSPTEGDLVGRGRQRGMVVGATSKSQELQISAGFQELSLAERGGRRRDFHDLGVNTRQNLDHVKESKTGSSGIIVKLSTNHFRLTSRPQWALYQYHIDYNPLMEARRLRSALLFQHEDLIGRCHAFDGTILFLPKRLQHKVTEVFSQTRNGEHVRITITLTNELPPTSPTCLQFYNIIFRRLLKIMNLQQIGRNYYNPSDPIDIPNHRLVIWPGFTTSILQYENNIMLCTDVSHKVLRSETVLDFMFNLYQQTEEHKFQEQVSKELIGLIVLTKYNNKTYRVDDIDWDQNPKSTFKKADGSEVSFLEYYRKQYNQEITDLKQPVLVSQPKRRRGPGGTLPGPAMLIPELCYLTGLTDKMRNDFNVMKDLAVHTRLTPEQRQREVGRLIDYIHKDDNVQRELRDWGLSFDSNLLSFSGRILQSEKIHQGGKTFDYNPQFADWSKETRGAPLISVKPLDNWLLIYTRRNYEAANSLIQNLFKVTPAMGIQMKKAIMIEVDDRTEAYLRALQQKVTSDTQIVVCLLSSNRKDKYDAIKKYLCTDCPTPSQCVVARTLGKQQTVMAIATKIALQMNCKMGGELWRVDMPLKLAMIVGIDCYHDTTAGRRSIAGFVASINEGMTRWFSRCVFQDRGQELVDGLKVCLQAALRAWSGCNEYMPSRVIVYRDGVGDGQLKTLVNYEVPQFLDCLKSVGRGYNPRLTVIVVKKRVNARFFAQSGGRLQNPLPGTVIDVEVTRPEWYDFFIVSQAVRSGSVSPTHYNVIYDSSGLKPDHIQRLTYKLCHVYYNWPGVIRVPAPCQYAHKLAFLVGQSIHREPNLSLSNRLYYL

BmGtsf1-like, silk moth (Bombyx mori), V5SBP-tagged recombinant (natural protein)
increase in the amount of target cleaved by MIWI piRISC (S.D. = 0.1; p = 0.0027): 2.6 fold
